Here are results for 1 substance from US20040082512A1.

The test deals with ZOT receptor of rabbit ileum. As to the kind of experiment: cell-based or functional assay.

Turning to “FZI/0, synthetic octapeptide Gly Gly Val Leu Val Gln Pro Gly”, the decrease of the effect of ZOT (6xHis-ZOT) on Rt of rabbit ileum after 20 min pre-treatment with FZI/0 stood at 75%, the decrease of the effect of zonulinh on Rt of rabbit ileum after 20 min pre-treatment with FZI/0 was 100% and the decrease of the effect of zonulini on Rt of rabbit ileum after 20 min pre-treatment with FZI/0 was 97%.
